Reference: PMC7229184, “Cryo-EM structure of the volume-regulated anion channel LRRC8D isoform identifies features important for substrate permeation” (Communications Biology, 2020)

Target: the molecule itself
Assay: cryo-EM structure; purified HsLRRC8D in 50 mM Tris pH 8.0, 150 mM NaCl, 5 mM dithiothreitol, 0.1% digitonin, 3 mg/mL, vitrified; single-particle analysis, C2 symmetry imposed; homo-hexamer ('dimer of trimers')

B1: human LRRC8D (leucine-rich repeat-containing 8 isoform D) wild-type protein (natural protein)
chain: MFTLAEVASLNDIQPTYRILKPWWDVFMDYLAVVMLMVAIFAGTMQLTKDQVVCLPVLPSPVNSKAHTPPGNAEVTTNIPKMEAATNQDQDGRTTNDISFGTSAVTPDIPLRATYPRTDFALPNQEAKKEKKDPTGRKTNLDFQQYVFINQMCYHLALPWYSKYFPYLALIHTIILMVSSNFWFKYPKTCSKVEHFVSILGKCFESPWTTKALSETACEDSEENKQRITGAQTLPKHVSTSSDEGSPSASTPMINKTGFKFSAEKPVIEVPSMTILDKKDGEQAKALFEKVRKFRAHVEDSDLIYKLYVVQTVIKTAKFIFILCYTANFVNAISFEHVCKPKVEHLIGYEVFECTHNMAYMLKKLLISYISIICVYGFICLYTLFWLFRIPLKEYSFEKVREESSFSDIPDVKNDFAFLLHMVDQYDQLYSKRFGVFLSEVSENKLREISLNHEWTFEKLRQHISRNAQDKQELHLFMLSGVPDAVFDLTDLDVLKLELIPEAKIPAKISQMTNLQELHLCHCPAKVEQTAFSFLRDHLRCLHVKFTDVAEIPAWVYLLKNLRELYLIGNLNSENNKMIGLESLRELRHLKILHVKSNLTKVPSNITDVAPHLTKLVIHNDGTKLLVLNSLKKMMNVAELELQNCELERIPHAIFSLSNLQELDLKSNNIRTIEEIISFQHLKRLTCLKLWHNKIVTIPPSITHVKNLESLYFSNNKLESLPVAVFSLQKLRCLDVSYNNISMIPIEIGLLQNLQHLHITGNKVDILPKQLFKCIKLRTLNLGQNCITSLPEKVGQLSQLTQLELKGNCLDRLPAQLGQCRMLKKSGLVVEDHLFDTLPLEVKEALNQDINIPFANGI
notes: Residues of the TEV site may remain at the C-terminus after cleavage; also called HsLRRC8D; not shown: GFP, C-terminal, cleaved; His8, C-terminal, cleaved
For B1, the “stoichiometry N” value was 6.
